Source: publication PMC3814645 (Genes & Development, 2013)

Biological target: eIF4E (endogenous) (human (endogenous in HCT116), UniProt P06730 1-217)
Test: co-IP

Chain of eIF4E (endogenous) (P06730 whole entry): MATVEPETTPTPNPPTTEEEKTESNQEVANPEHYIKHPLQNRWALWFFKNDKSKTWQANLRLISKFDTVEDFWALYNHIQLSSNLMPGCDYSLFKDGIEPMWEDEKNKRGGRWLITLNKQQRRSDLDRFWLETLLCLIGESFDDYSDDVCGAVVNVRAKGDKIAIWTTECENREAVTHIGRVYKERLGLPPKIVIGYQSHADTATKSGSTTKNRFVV

- ratio of p-RNPC1 versus RNPC1 in anti-eIF4E immunocomplexes: 0.12
B1: p-RNPC1 (endogenous RNPC1 phosphorylated at Ser195) (natural protein, human (endogenous in HCT116 and RKO), UniProt Q9H0Z9 1-239, looked up)
chain: MLLQPAPCAPSAGFPRPLAAPGAMHGSQKDTTFTKIFVGGLPYHTTDASLRKYFEGFGDIEEAVVITDRQTGKSRGYGFVTMADRAAAERACKDPNPIIDGRKANVNLAYLGAKPRSLQTGFAIGVQQLHPTLIQRTYGLTPHYIYPPAIVQPSVVIPAAPVPSLSSPYIEYTPASPAYAQYPPATYDQYPYAASPATAASFVGYSYPAAVPQALSAAAPAGTTFVQYQAPQLQPDRMQ
modifications: phosphoserine at 195
